The target in the assay is T1, recombinant human TCTP (translationally controlled tumor protein) (human, UniProt P13693 1-172).
T1 construct: The ELISA is only said to be 'on TCTP', and the screening beads were coated with human TCTP; also called HRF; Tpt1
T1 sequence: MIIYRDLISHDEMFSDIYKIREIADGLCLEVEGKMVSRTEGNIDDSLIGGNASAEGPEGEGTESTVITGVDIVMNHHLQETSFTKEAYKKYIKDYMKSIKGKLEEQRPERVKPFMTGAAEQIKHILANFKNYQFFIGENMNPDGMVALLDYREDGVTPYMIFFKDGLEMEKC
The assay is described as follows: ELISA on TCTP, after single B cell screening with human TCTP coated beads. Here is the method: Transgenic mice for preparing fully human antibodies (CAMOUSE®) were immunized by using a recombinant human TCTP (SEQ ID NO: 36), and standard single B cell screening method was used. Single viable B cell arrays were prepared by applying splenocyte of immunized mice to microarray chips. TCTP-specific antibody secreting single cells were screened on the microarray chip using human TCTP coated beads and then recovered by micromanipulation, mRNA were recovered from the single cells, and cDNA sequences encoding the variable regions of the IgG heavy (VH) and light (VL) chains were amplified by RT-PCR. The recombinant antibodies containing the VH and VL sequences are purified and tested by ELISA on TCTP. As a result, antibody 1-2-4 was obtained. The variable region sequences of antibody 1-2-4 are as follows. The antibody sequences for 1-2-4 were obtained from CAMOUSE® in cooperation with CAMAB (China) and GenScript (China).

B1: anti-TCTP human monoclonal antibody 1-2-4 (antibody, V domains shown)
VH: QVQLVQSGAEVKKPGASVKVSCKASGYTFFSYAMHWVRQAPGQRLEWMGWINAGNGNTKYSQKFQDRVTITRDTSATTAYMELSSLRSEDTAVYYCASWVFDYWGQGTPVTVSS
VL: DIVMTQTPLSSLVTLGQPASISCRSSQSLVHRDGNTYLSWLQQRPGQPPRLLIYKISNRFFGVPDRFSGSGAGTDFTLKISRVEAEDVGVYYCMQATQFPHTFGQGTKLEIK
As for B1, the binding result is reported as “binds”.

Source of the values: patent US20240000932A1 (BOOSTIMMUNE, published 2024).
